The text below walks through data of patent US20190022244A1 (BIOASIS TECHNOLOGIES, published 2019).

The assay addresses T1, human N-acetylated-alpha-linked acidic dipeptidase-like protein 2 (NAALADL2) (human, UniProt Q58DX5 1-795).
T1 construct: also called human NAALADL2 receptor; NAALADL2 polypeptide
T1 sequence: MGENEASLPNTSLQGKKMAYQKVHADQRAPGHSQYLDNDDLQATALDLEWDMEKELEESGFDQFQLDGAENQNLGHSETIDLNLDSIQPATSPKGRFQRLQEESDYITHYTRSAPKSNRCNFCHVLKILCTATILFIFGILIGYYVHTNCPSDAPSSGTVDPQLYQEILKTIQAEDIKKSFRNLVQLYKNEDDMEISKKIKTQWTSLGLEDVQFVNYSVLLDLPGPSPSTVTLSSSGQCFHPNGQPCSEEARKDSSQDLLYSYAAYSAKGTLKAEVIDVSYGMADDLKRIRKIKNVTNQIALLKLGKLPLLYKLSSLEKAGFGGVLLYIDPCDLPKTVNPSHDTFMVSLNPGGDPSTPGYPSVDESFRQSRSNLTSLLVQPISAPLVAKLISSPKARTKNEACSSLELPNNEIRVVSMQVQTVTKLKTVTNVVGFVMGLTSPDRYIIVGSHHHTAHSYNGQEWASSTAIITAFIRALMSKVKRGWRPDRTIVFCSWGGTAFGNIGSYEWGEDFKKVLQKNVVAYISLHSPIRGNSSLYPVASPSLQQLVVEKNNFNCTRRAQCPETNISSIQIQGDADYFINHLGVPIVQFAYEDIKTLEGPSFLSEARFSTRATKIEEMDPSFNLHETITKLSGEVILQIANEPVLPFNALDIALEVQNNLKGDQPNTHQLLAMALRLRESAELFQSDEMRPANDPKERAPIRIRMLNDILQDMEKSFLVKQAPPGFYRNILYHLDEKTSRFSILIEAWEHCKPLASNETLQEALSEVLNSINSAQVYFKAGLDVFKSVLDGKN
Put plainly: EGS cross-linking on U87 cells, then reciprocal immunoprecipitation (anti-MTf L235 or anti-NAALADL2 N18+L18) and immunoblot with the complementary antibody. The method, then: Cells were pulsed with 1 μl of 7.1 mg/ml a human melanotransferrin (MTf) peptide ([…]; SEQ ID NO:2) and 4 μl of NTA-Fe, and shaken gently at 4° C. for 20 minutes to allow binding. The supernatant was discarded and the cells were washed 2× with 5 ml of PBS at 4° C. Cross-linker solution (6 ml of 3.7 mM EGS; Thermo Scientific, Cat #87786) was added to each flask, and the cells were shaken gently at 4° C. for 2 hours.
The supernatant was discarded, and 2 ml of RIPA buffer with 1X HALT protease inhibitor cocktail was added to lyse the cells and quench the cross-linker. The cells were shaken vigorously at room temperature for 5 minutes, and a cell scraper was used to lyse and completely detach the cell lysate from the plate.

B1: human melanotransferrin (MTf) peptide (DSSHAFTLDELR; SEQ ID NO:2) (peptide)
peptide: DSSHAFTLDELR
notes: 12-residue fragment of human melanotransferrin (p97); It was pulsed onto U87 cells together with NTA-Fe; also called human MTf peptide; human MTf polypeptide
B1: the binding result is reported as “binds”.
